Data as given in patent US20220002403A1 (Merck Sharp & Dohme, published 2022).
Blank lines part the entries; values can stand above or below the binder they belong to.

Tests used:
[1] = target: T1, human ILT4 expressed on CHO cells (CHO/ILT4 cell line) (human, UniProt Q8N423 22-597); experiment: cell-based ligand blocking assay: CHO/ILT4 cells pre-incubated with antibody (1-20,000 ng/mL), then biotinylated HLA-G/Fc
T1 construct: also called CHO/ILT4+ cells; CHO-expressed ILT4

[2] = target: T2, recombinant human ILT4 antigen chemically coupled to Luminex beads (ILT4/Fc) (human, UniProt Q8N423 22-460); experiment: Luminex ligand blocking assay: bead-coupled ILT4 pre-incubated with antibody (0.5-9,000 ng/mL), then 50 nM biotinylated HLA-G/Fc
T2 construct: also called Luminex bead-coupled ILT4/Fc; not shown: Fc part

[3] = target: T3, human ILT2 expressed on mouse 3A9 T cells (human, UniProt Q8NHL6 24-650); experiment: flow cytometry on 3A9 T cell transfectants
T3 construct: whole, on cells

[4] = target: T4, human ILT5 expressed on mouse 3A9 T cells (human, UniProt O75022 24-631); experiment: flow cytometry on 3A9 T cell transfectants
T4 construct: whole, on cells

[5] = target: T5, human LILRB5 expressed on mouse 3A9 T cells (human, UniProt O75023 24-590); experiment: flow cytometry on 3A9 T cell transfectants
T5 construct: whole, on cells

[6] = target: T6, human LILRA1 expressed on mouse 3A9 T cells (human, UniProt O75019 17-489); experiment: flow cytometry on 3A9 T cell transfectants
T6 construct: whole, on cells

[7] = target: T7, human LILRA2 expressed on mouse 3A9 T cells (human, UniProt Q8N149 24-483); experiment: flow cytometry on 3A9 T cell transfectants
T7 construct: whole, on cells

[8] = target: T8, human ILT7 expressed on mouse 3A9 T cells (human, UniProt P59901 24-499); experiment: flow cytometry on 3A9 T cell transfectants
T8 construct: whole, on cells

[9] = target: T9, human ILT8 expressed on mouse 3A9 T cells (human, UniProt Q6PI73 24-481); experiment: flow cytometry on 3A9 T cell transfectants
T9 construct: whole, on cells

[10] = target: T10, human ILT11 expressed on mouse 3A9 T cells (human, UniProt A6NI73 42-299); experiment: flow cytometry on 3A9 T cell transfectants
T10 construct: whole, on cells

[11] = target: T11, human ILT3 (two variants) expressed on mouse 3A9 T cells (human, UniProt Q8NHJ6 22-448); experiment: flow cytometry on 3A9 T cell transfectants (two ILT3 variants)
T11 construct: whole, on cells; Two variants were tested

[12] = target: T12, ILT4-His (recombinant extracellular domain of human ILT4 fused to a poly-Histidine tag) (human, UniProt Q8N423 22-460); experiment: SPR; ratio of KD to that of 1E1(G4) (the reference itself)
T12 construct: also called polyhistidine-tagged human ILT4; recombinant histidine tagged, extracellular domain of ILT4; not shown: poly-histidine tag

[13] = target: T12, ILT4-His (recombinant extracellular …); experiment: SPR (Biacore T200): mAb captured by human Fc capture on CM5 chip, ILT4-His titrated; 1:1 model; n=2

T12 sequence (Q8N423 other isoform, or with tags, fused parts or gaps): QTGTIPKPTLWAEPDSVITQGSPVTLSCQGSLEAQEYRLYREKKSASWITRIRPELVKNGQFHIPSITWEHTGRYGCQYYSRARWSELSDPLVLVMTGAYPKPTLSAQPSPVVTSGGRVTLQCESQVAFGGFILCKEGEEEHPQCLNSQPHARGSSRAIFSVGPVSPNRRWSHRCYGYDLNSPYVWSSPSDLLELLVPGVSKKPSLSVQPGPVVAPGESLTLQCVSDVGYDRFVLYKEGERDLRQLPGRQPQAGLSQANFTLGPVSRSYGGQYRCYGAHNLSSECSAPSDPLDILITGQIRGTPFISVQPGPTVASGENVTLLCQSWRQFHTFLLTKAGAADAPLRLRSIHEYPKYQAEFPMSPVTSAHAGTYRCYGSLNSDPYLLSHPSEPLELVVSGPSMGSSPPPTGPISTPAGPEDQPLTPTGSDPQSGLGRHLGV
T1 sequence (Q8N423 other isoform, or with tags, fused parts or gaps): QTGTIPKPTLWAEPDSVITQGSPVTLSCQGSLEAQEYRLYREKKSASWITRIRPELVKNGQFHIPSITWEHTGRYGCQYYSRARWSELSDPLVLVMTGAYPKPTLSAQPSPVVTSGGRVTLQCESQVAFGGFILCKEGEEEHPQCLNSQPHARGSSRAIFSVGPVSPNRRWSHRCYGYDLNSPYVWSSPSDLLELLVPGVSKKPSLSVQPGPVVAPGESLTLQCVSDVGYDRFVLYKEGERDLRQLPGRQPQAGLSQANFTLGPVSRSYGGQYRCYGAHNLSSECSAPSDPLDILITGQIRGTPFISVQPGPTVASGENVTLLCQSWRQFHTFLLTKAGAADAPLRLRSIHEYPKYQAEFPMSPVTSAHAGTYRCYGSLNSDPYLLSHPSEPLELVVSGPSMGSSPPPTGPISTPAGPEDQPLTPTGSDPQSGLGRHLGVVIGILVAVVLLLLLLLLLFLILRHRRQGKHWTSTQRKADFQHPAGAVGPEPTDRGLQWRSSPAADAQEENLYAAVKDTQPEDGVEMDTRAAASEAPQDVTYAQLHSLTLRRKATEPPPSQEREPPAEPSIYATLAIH
T5 sequence (O75023 24-590): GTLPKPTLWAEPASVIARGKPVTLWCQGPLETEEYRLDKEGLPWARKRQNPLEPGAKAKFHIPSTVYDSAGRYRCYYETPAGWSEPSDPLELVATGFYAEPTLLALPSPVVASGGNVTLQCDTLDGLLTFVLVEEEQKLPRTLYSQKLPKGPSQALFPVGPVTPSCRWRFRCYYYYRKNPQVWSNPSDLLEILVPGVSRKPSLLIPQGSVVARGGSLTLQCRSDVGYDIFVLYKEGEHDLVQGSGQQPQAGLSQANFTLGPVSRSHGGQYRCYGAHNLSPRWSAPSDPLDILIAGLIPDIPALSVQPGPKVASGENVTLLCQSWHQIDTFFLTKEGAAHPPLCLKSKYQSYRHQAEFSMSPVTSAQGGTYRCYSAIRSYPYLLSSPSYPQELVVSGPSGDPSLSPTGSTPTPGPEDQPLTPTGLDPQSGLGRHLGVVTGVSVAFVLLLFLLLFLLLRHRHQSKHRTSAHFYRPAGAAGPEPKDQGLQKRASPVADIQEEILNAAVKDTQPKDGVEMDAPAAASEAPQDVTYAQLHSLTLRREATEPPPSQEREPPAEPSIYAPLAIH
T9 sequence (Q6PI73 24-481): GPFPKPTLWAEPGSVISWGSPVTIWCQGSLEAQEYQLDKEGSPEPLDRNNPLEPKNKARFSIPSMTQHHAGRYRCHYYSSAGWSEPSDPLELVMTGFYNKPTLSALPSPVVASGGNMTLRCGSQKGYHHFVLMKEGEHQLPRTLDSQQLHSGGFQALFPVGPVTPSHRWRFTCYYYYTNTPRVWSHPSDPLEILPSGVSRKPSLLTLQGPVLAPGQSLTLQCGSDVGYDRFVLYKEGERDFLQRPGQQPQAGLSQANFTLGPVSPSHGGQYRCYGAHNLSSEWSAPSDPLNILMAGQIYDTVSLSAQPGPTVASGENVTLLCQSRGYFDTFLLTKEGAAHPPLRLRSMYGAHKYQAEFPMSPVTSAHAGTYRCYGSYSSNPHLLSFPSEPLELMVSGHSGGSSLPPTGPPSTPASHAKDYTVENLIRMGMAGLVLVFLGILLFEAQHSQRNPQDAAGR
T7 sequence (Q8N149 24-483): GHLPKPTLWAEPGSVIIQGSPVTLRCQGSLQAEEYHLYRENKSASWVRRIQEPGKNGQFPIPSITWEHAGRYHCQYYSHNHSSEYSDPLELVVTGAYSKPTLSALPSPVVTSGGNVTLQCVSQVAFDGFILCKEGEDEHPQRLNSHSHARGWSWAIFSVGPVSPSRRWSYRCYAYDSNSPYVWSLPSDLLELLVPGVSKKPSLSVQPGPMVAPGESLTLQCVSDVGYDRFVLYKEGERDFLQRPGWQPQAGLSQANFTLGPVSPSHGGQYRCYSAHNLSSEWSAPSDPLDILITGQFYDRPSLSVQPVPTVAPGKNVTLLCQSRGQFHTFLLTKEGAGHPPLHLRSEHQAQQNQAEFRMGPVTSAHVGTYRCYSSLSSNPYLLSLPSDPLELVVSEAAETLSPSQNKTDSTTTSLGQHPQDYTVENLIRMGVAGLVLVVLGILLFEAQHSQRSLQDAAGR
T6 sequence (O75019 17-489): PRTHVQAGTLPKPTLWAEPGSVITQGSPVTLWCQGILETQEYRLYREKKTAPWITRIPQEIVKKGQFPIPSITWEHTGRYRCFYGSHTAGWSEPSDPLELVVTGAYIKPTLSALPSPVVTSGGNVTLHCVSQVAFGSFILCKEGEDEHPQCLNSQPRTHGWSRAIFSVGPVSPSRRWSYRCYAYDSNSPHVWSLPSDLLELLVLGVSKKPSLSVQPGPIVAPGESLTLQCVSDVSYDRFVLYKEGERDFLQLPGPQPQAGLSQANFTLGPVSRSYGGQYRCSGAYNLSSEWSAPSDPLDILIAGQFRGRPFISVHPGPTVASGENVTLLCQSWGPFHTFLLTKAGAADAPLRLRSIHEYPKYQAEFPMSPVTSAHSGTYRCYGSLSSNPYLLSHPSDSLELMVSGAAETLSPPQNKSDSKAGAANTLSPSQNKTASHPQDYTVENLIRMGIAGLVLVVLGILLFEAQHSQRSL
T3 sequence (Q8NHL6 24-650): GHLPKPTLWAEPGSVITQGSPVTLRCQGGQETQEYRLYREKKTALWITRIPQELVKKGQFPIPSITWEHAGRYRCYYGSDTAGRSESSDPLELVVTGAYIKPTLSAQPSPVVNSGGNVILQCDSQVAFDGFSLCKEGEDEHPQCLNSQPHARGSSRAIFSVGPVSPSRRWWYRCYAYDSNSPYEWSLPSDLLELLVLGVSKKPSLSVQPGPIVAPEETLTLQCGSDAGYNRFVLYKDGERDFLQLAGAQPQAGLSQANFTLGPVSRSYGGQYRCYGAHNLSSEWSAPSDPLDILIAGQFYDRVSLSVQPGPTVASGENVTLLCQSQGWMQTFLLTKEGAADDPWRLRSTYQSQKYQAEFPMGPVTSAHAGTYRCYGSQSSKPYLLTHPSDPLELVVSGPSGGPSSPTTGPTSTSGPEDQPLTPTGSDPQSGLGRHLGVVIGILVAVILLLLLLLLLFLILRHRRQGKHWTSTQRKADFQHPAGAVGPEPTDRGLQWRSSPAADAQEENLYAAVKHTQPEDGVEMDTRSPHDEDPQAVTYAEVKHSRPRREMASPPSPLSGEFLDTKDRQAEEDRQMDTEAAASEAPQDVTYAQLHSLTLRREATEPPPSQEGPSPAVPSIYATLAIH
T8 sequence (P59901 24-499): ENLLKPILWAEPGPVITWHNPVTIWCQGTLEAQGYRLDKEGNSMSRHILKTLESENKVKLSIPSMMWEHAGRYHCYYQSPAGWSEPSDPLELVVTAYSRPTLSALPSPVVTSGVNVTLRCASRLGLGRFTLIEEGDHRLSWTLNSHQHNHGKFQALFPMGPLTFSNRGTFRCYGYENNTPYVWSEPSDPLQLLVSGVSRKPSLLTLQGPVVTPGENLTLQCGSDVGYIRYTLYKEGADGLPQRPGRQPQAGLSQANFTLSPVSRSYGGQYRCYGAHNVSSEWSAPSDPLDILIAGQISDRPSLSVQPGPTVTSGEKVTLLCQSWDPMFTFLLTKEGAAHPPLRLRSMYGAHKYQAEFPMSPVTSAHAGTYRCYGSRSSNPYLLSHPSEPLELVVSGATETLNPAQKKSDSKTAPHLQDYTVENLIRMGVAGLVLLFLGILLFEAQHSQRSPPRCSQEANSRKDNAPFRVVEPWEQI
T10 sequence (A6NI73 42-299): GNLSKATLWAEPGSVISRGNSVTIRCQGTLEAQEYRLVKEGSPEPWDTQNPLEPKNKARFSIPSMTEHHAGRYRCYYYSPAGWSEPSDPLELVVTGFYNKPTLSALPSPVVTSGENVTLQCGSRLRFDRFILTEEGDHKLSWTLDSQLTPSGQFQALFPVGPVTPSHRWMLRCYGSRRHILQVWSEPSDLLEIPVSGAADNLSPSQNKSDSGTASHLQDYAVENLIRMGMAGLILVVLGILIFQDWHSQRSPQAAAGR

B3: 1E1 (hIgG4 variant) (antibody)
heavy: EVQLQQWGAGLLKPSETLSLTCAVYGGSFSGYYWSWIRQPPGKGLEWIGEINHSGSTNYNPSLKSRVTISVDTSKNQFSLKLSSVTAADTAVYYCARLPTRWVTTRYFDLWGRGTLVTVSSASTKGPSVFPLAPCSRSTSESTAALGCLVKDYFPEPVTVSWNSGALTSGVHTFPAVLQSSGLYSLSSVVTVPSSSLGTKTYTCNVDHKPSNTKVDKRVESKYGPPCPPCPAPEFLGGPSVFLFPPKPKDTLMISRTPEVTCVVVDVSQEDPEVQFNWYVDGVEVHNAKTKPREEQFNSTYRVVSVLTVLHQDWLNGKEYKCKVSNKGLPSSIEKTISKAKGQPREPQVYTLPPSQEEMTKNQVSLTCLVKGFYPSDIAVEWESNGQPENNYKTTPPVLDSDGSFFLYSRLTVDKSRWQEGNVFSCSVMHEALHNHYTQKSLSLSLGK
light: ESVLTQPPSVSGAPGQRVTISCTGSSSNIGAGYDVHWYQQLPGTAPKLLIYGNSNRPSGVPDRFSVSKSGASASLAITGLQAEDEADYYCQSFDNSLSAYVFGGGTQLTVLGQPKAAPSVTLFPPSSEELQANKATLVCLISDFYPGAVTVAWKADSSPVKAGVETTTPSKQSNNKYAASSYLSLTPEQWKSHRSYSCQVTHEGSTVEKTVAPTECS
notes: The chain assignment is uncertain
IC50 [1]: 0.0984 µg/mL | IC50 [2]: 0.0192 µg/mL

B5: 2A6 (antibody, V domains shown)
VH: EVQLVQSGAEVKKPGSSVKVSCKASGGTFSSYAISWVRQAPGQGLEWMGGIIPIFGTANYAQKFQGRVTITADESTSTAYMELSSLRSEDTAVYYCARYFDSSGWYKGGAFDIWGQGTMVTVSS
VL: QSVLTQPSSLSASPGASASLTCTLRSGINVDTYRIHWYQQKPGSPPQYLLRYKSDSDKHQGSGVPSRFSGSKDPSANAGILLISGLQSEDEADYYCAIWYSSTWVFGGGTQLTVLG
notes: hIgG4 variant in the Luminex and cell assays; also called 2A6 (hIgG4 variant)
IC50 [1]: 0.233 µg/mL | IC50 [2]: 0.0177 µg/mL

Continued, values first:

IC50 [1]: 0.374 µg/mL | IC50 [2]: 0.04 µg/mL
B1: 3G7 (antibody, V domains shown)
VH: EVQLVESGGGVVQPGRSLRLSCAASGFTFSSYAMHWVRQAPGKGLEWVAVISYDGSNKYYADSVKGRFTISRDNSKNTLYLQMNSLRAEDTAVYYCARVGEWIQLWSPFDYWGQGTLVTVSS
VL: DIQMTQSPSSVSASVGDRVTITCRASQGISSWLAWYQQKPGKAPKFLIYAASSLQSGVPSKFSGSGSGTDFTLTISSLQPEDFATYYCQQYNSYPPTFGGGTKVEIKR
notes: hIgG4 variant in the Luminex and cell assays; also called 3G7 (hIgG4 variant)

IC50 [1]: 0.0561 µg/mL | IC50 [2]: 0.0102 µg/mL
B2: 2C1 (antibody, V domains shown)
VH: EVQLVQSGAEVKKPGASVKVSCKVSGYTLTELSMHWVRQAPGKGLEWMGGFDPEDGETIYAQKFQGRVTMTEDTSTDTAYMELSSLRSEDTAVYYCARAGPLYTIFGVVIIPDNWFDPWGQGTLVTVSS
VL: ESVLTQPPSVSGAPGQRVTISCTGSSSNIGAGYDVHWYQQLPGTAPKLLIYGNSNRPSGVPDRFSGSKSGTSASLAITGLQAEDEADYYCQSYDSSLSGSGVVFGGGTQLIILG
notes: hIgG4 variant in the Luminex and cell assays; also called 2C1 (hIgG4 variant)

binding result [3]: no binding (tested: 10 ug/mL) | binding result [4]: no binding (tested: 10 ug/mL) | binding result [5]: no binding (tested: 10 ug/mL) | binding result [6]: no binding (tested: 10 ug/mL) | binding result [7]: no binding (tested: 10 ug/mL) | binding result [8]: no binding (tested: 10 ug/mL) | binding result [9]: no binding (tested: 10 ug/mL) | binding result [10]: no binding (tested: 10 ug/mL) | binding result [11]: no binding (tested: 10 ug/mL) | KD Ratio [12]: 1 | Kd [13]: 17 nM | koff [13]: 0.009 s⁻¹
B4: 1E1(G4) (antibody, human IgG4 S228P, lambda, V domains shown)
VH: EVQLQQWGAGLLKPSETLSLTCAVYGGSFSGYYWSWIRQPPGKGLEWIGEINHAGSTNYNPSLKSRVTISVDTSKNQFSLKLSSVTAADTAVYYCARLPTRWVTTRYFDLWGRGTLVTVSS
VL: ESVLTQPPSVSGAPGQRVTISCTGSSSNIGAGYDVHWYQQLPGTAPKLLIYGDSNRPSGVPDRFSVSKSGASASLAITGLQAEDEADYYCQSFDNSLSAYVFGGGTQLTVLG
notes: also called 1E1 VH Q1E, S54A/VL Q1E, N53D IgG4 S228P/Lambda
